According to US20080293089:

T1: S5a (substrate in the E3 ligase selectivity example), P55036
T1 chain: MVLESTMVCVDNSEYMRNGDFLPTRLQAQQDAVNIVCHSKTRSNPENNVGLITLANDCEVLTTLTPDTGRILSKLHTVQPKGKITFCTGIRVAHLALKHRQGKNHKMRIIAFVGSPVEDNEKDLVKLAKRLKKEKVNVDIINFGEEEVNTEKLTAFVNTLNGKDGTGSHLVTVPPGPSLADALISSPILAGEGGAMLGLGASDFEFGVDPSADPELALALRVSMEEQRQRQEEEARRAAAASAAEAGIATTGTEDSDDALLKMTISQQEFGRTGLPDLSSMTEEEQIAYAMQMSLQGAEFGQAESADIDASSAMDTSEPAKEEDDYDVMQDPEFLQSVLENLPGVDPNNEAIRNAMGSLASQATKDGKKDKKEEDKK

B1: GST-E6AP (protein)
chain: MEKLHQCYWKSGEPQSDDIEASRMKRAAAKHLIERYYHQLTEGCGNEACTNEFCASCPTFLRMDNNAAAIKALELYKINAKLCDPHPSKKGASSAYLENSKGAPNNSCSEIKMNKKGARIDFKDVTYLTEEKVYEILELCREREDYSPLIRVIGRVFSSAEALVQSFRKVKQHTKEELKSLQAKDEDKDEDEKEKAACSAAAMEEDSEASSSRIGDSSQGDNNLQKLGPDDVSVDIDAIRRVYTRLLSNEKIETAFLNALVYLSPNVECDLTYHNVYSRDPNYLNLFIIVMENRNLHSPEYLEMALPLFCKAMSKLPLAAQGKLIRLWSKYNADQIRRMMETFQQLITYKVISNEFNSRNLVNDDDAIVAASKCLKMVYYANVVGGEVDTNHNEEDDEEPIPESSELTLQELLGEERRNKKGPRVDPLETELGVKTLDCRKPLIPFEEFINEPLNEVLEMDKDYTFFKVETENKFSFMTCPFILNAVTKNLGLYYDNRIRMYSERRITVLYSLVQGQQLNPYLRLKVRRDHIIDDALVRLEMIAMENPADLKKQLYVEFEGEQGVDEGGVSKEFFQLVVEEIFNPDIGMFTYDESTKLFWFNPSSFETEGQFTLIGIVLGLAIYNNCILDVHFPMVVYRKLMGKKGTFRDLGDSHPVLYQSLKDLLEYEGNVEDDMMITFQISQTDLFGNPMMYDLKENGDKIPITNENRKEFVNLYSDYILNKSVEKQFKAFRRGFHMVTNESPLKYLFRPEEIELLICGSRNLDFQALEETTEYDGGYTRDSVLIREFWEIVHSFTDEQKRLFLQFTTGTDRAPVGGLGKLKMIIAKNGPDTERLPTSHTCFNVLLLPEYSSKEKLKERLLKAITYAKGFGML
B2: GST-Siah2 (protein)
chain: MSRPSSTGPSANKPCSKQPPPQPQHTPSPAAPPAAATISAAGPGSSAVPAAAAVISGPGGGGGAGPVSPQHHELTSLFECPVCFDYVLPPILQCQAGHLVCNQCRQKLSCCPTCRGALTPSIRNLAMEKVASAVLFPCKYATTGCSLTLHHTEKPEHEDICEYRPYSCPCPGASCKWQGSLEAVMSHLMHAHKSITTLQGEDIVFLATDINLPGAVDWVMMQSCFGHHFMLVLEKQEKYEGHQQFFAIVLLIGTRKQAENFAYRLELNGNRRRLTWEATPRSIHDGVAAAIMNSDCLVFDTAIAHLFADNGNLGINVTISTCCP
B3: GST-Nedd4 (protein)
chain: MATCAVEVFGLLEDEENSRIVRVRVIAGIGLAKKDILGASDPYVRVTLYDPMNGVLTSVQTKTIKKSLNPKWNEEILFRVHPQQHRLLFEVFDENRLTRDDFLGQVDVPLYPLPTENPRLERPYTFKDFVLHPRSHKSRVKGYLRLKMTYLPKTSGSEDDNAEQAEELEPGWVVLDQPDAACHLQQQQEPSPLPPGWEERQDILGRTYYVNHESRRTQWKRPTPQDNLTDAENGNIQLQAQRAFTTRRQISEETESVDNRESSENWEIIREDEATMYSNQAFPSPPPSSNLDVPTHLAEELNARLTIFGNSAVSQPASSSNHSSRRGSLQAYTFEEQPTLPVLLPTSSGLPPGWEEKQDERGRSYYVDHNSRTTTWTKPTVQATVETSQLTSSQSSAGPQSQASTSDSGQQVTQPSEIEQGFLPKGWEVRHAPNGRPFFIDHNTKTTTWEDPRLKIPAHLRGKTSLDTSNDLGPLPPGWEERTHTDGRIFYINHNIKRTQWEDPRLENVAITGPAVPYSRDYKRKYEFFRRKLKKQNDIPNKFEMKLRRATVLEDSYRRIMGVKRADFLKARLWIEFDGEKGLDYGGVAREWFFLISKEMFNPYYGLFEYSATDNYTLQINPNSGLCNEDHLSYFKFIGRVAGMAVYHGKLLDGFFIRPFYKMMLHKPITLHDMESVDSEYYNSLRWILENDPTELDLRFIIDEELFGQTHQHELKNGGSEIVVTNKNKKEYIYLVIQWRFVNRIQKQMAAFKEGFFELIPQDLIKIFDENELELLMCGLGDVDVNDWREHTKYKNGYSANHQVIQWFWKAVLMMDSEKRIRLLQFVTGTSRVPMNGFAELYGSNGPQSFTVEQWGTPEKLPRAHTCFNRLDLPPYESFEELWDKLQMAIENTQGFDGVD
B4: GST-Murf1 (protein)
chain: MDYKSSLIQDGNPMENLEKQLICPICLEMFTKPVVILPCQHNLCRKCANDIFQAANPYWTSRGSSVSMSGGRFRCPTCRHEVIMDRHGVYGLQRNLLVENIIDIYKQECSSRPLQKGSHPMCKEHEDEKINIYCLTCEVPTCSMCKVFGIHKACEVAPLQSVFQGQKTELNNCISMLVAGNDRVQTIITQLEDSRRVTKENSHQVKEELSQKFDTLYAILDEKKSELLQRITQEQEKKLSFIEALIQQYQEQLDKSTKLVETAIQSLDEPGGATFLLTAKQLIKSIVEASKGCQLGKTEQGFENMDFFTLDLEHIADALRAIDFGTDEEEEEFIEEEDQEEEESTEGKEEGHQ
B5: His-CHIP (protein)
chain: MKGKEEKEGGARLGAGGGSPEKSPSAQELKEQGNRLFVGRKYPEAAACYGRAITRNPLVAVYYTNRALCYLKMQQHEQALADCRRALELDGQSVKAHFFLGQCQLEMESYDEAIANLQRAYSLAKEQRLNFGDDIPSALRIAKKKRWNSIEERRIHQESELHSYLSRLIAAERERELEECQRNHEGDEDDSHVRAQQACIEAKHDKYMADMDELFSQVDEKRKKRDIPDYLCGKISFELMREPCITPSGITYDRKDIEEHLQRVGHFDPVTRSPLTQEQLIPNLAMKEVIDAFISENGWVEDY

Target: T1, S5a (substrate in the E3 ligase …)

Protein	Ubiquitinated S5a?
B1	Yes
B2	Yes (low)
B3	Yes
B4	Yes
B5	Yes
